Reference: US7319140 (SCHERING, dated 2008)
Values belong to the binder of their own block, whether it stands above or below them.

Assays:
[1] = biological target: T1, CD94/NKG2C receptor (disulfide-linked heterodimer) (human, UniProt Q13241 1-179; P26717 1-231); experiment: summary of example XII
T1 construct: whole, on cells; Expressed in Ba/F3 transfectants; also called CD94/NKG2C heterodimer

KIR2DS2 = biological target: T2, KIR2DS2 (human, UniProt P43631 22-304); experiment: co-immunoprecipitation from 125I-labelled Ba/F3 transfectants
T2 construct: whole, on cells; Expressed in Ba/F3 or Jurkat transfectants; also called NKAT5
Description: Unlike CD94/NKG2C, KIR2DS2 molecules are expressed on the cell surface in the absence of DAP12, although they are unable to induce cellular activation (Bléry, et al. (1997) *J. Biol. Chem.* 272:8989-8996; Lanier, et al. (1998) *Nature* 391:703-707). KIR2DS2+ Ba/F3 cells were infected with retroviruses encoding either wild-type FLAG-DAP12 or the D-A transmembrane FLAG-DAP12 mutant receptor. Both KIR2DS2 and the mutant DAP12 protein were expressed on the cell surface. […] Like NKG2A and NKG2C, the KIR2DS2 protein has a counterpart, KIR2DL2, that lacks a charged amino acid in the transmembrane and contains an ITIM in its cytoplasmic domain. It has been previously reported that KIR2DL2 is unable to associate with DAP12 (Lanier, et al. (1998) *Nature* 391:703-707). Collectively, these findings indicate that the association of DAP12 with either KIR2DS2 or CD94/NKG2C complexes likely results from interactions involving the transmembrane domains of these proteins.

[2] = biological target: T3, myc epitope tagged Ly49H (Ly49H-myc) (mouse, UniProt Q60682 1-266); experiment: co-immunoprecipitation from transfected Ba/F3 cells
T3 construct: whole, on cells; Expressed in Ba/F3 transfectants; also called mouse Ly49H
T3 sequence (looked up): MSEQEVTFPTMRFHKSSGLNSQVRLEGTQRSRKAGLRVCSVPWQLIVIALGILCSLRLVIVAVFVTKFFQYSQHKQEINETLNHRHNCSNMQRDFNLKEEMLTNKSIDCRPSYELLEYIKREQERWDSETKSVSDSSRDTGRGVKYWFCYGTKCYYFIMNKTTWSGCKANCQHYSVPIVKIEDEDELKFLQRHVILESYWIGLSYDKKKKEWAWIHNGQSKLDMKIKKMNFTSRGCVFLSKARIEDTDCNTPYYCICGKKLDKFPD
Description: (§1) Transcripts of Ly49D and Ly49H are present in IL-2 activated NK cells (20). Ly49D is expressed on ~50% of NK cells (Mason, et al. (1996) *J. Exp. Med.* 184:2119), and is associated with a tyrosine phosphoprotein of 16 kD (Mason, et al. (1998) *J. Immunol.* 160:4148-4152). Murine NK cells, like human NK cells, transcribe mRNA for DAP12, a molecule which associates with the activating KIR2DS and mediates cellular activation (Lanier, et al. (1998) *Nature* 391:703). To examine if Ly49D or Ly49H associated with DAP12, Ba/F3 cells were stably transfected with an epitope-tagged mouse DAP12 (DAP12-FLAG). […] Ba/F3 or the Ba/F3-DAP12 transfectants were then infected with retroviruses encoding either Ly49D, a myc epitope tagged Ly49H (Ly49H-myc), or as a control Ly49A. Neither Ly49D nor Ly49H-myc was expressed at appreciable levels on the cell surface when transfected into Ba/F3 cells.
(§2) To confirm that Ly49D and Ly49H non-covalently associate with DAP12 at the cell surface, Ly49D/DAP12-FLAG or Ly49H-myc/DAP12-FLAG Ba/F3 transfectants were surface iodinated, lysed with digitonin, and immunoprecipitates were analyzed by SDS-PAGE.

Ly49D = biological target: T4, Ly49D (mouse, UniProt Q60651 1-263); experiment: as above
T4 construct: whole, on cells; Expressed in Ba/F3 transfectants; also called mouse Ly49D
T4 sequence (looked up): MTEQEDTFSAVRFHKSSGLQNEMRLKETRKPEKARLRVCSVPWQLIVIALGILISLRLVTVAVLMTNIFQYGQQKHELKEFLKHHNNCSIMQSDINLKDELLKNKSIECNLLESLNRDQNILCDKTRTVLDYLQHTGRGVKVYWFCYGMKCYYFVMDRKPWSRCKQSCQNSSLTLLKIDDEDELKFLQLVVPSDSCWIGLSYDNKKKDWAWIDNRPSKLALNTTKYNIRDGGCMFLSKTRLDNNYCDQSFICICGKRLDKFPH
Description: as §1, §2

T1 sequence (Q13241 whole entry, chain 1 of 2): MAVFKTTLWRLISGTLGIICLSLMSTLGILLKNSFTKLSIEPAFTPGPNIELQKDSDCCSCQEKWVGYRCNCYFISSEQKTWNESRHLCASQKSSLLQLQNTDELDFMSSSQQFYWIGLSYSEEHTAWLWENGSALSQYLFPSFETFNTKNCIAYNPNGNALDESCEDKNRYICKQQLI
T1 sequence (P26717 whole entry, chain 2 of 2): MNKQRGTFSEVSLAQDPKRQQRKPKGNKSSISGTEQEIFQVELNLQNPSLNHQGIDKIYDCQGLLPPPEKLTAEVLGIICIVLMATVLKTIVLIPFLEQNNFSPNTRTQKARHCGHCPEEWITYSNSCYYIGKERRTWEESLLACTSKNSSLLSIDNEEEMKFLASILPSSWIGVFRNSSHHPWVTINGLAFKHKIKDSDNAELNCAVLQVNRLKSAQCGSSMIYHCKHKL
T2 sequence (P43631 22-304): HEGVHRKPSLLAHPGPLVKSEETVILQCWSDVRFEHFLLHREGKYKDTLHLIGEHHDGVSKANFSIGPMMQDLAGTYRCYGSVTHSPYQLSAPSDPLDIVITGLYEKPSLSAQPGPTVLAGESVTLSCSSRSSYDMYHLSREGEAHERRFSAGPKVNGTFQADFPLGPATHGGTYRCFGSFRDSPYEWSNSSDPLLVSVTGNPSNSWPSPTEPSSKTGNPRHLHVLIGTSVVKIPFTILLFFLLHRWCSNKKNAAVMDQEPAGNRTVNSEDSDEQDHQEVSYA

- binding result [1]: binds
B1: DAP12-FLAG (human DAP12 with a FLAG epitope tag at the N terminus) (receptor, not shown: small tags and cut ends)
chain: QAQSDCSCSTVSPGVLAGIVMGDLVLTVLIALAVYFLGRLVPRGRGAAEAATRKQRITETESPYQELQGQRSDVYSDLNTQRPYYK
notes: Made as CD8 leader, FLAG, then DAP12 without its own leader; Runs as a disulfide-bonded homodimer on the cell surface; also called FLAG-DAP12

- binding result (KIR2DS2): no binding
B2: D-A transmembrane FLAG-DAP12 mutant receptor (receptor, not shown: small tags and cut ends)
chain: QAQSDCSCSTVSPGVLAGIVMGALVLTVLIALAVYFLGRLVPRGRGAAEAATRKQRITETESPYQELQGQRSDVYSDLNTQRPYYK
notes: also called mutant DAP12 protein

- binding result [2]: binds
- binding result (Ly49D): binds
B3: epitope-tagged mouse DAP12 (DAP12-FLAG) (receptor, not shown: small tags and cut ends)
chain: AQSDTFPRCDCSSVSPGVLAGIVLGDLVLTLLIALAVYSLGRLVSRGQGTAEGTRKQHIAETESPYQELQGQRPEVYSDLNTQRQYYR
notes: Limits of the construct are not described; also called mouse DAP12-FLAG; FLAG-tagged form of mouse DAP12
